Results from patent US20240166755A1, “CHIMERIC ANTIGEN RECEPTORS TARGETING CANCER” (University of Southern California, priority 2016, published 2024).
Values belong to the binder of their own block, whether it stands above or below them.

Molecular target: human MPL (thrombopoietin receptor) (human) (UniProt P40238)
Assay: cell-based or functional assay

B2: CD8SP-161-(vL-vH)-Myc-CD28z-T2A-PAC(021715-Z07) (scFv)
chain: DDIQMTQSSSSFSVSLGDRVTITCMASEDIYIRLAWYQQKPGNAPRLLISAATSLETGVPSRFSGSGSGKDYTLSITSLQTEDVGTYYCQQYWSSPWTFGGGTKLEINGGGGSGGGGSGGGGSDVQLQESGPGLVKPSQSLSLTCTVTGYSITSDYTWNWIRQFPGNKLEWMGYITYSGSTSYNPSLKSRNSITRDTSKNQFFLQLNSVTTEDTATYYCARLGRRYTMDYWGQGTSVTVSSTREQKLISEEDLKIEVMYPPPYLDNEKSNGTIIHVKGKHLCPSPLFPGPSKPFWVLVVVGGVLACYSLLVTVAFIIFWVRSKRSRLLHSDYMNMTPRRPGPTRKHYQPYAPPRDFAAYRSRVKFSRSADAPAYQQGQNQLYNELNLGRREEYDVLDKRRGRDPEMGGKPRRKNPQEGLYNELQKDKMAEAYSEIGMKGERRRGKGHDGLYQGLSTATKDTYDALHMQALPPRSSGSGEGRGSLLTCGDVEENPG
GFP induction (%) in CAR-expressing Jurkat-NFAT-EGFP cells, target cell line HEL: 14%
GFP induction (%) in CAR-expressing Jurkat-NFAT-EGFP cells, target cell line RAJI-Mpl: 11%
GFP induction (%) in CAR-expressing Jurkat-NFAT-EGFP cells, target cell line RAJI-vector: 5%

B4: CD8SP-175-(vL-vH)-Myc-CD28z-T2A-PAC(031615-Q04) (scFv)
chain: DQIVLTQSPAIMSASPGEKVTISCSASSSVSYMYWYQQKPGSSPKPWIYRTSNLASGVPARFSGSGSGTSYSLTISNMEAEDAAAYYCQQYHSYPTTFGGGTKLEVKGGGGSGGGGSGGGGSEVQLVESGGGLVQPKGSLKLSCAASGFSFNTYAMNWVRQAPGKGLEWIAHIRSKSNNFATYYADSVKDRFSISRDASENILFLQMNNLKTEDTAMYYCVRQGGDFPMDYWGQGTSVTVSSTREQKLISEEDLKIEVMYPPPYLDNEKSNGTIIHVKGKHLCPSPLFPGPSKPFWVLVVVGGVLACYSLLVTVAFIIFWVRSKRSRLLHSDYMNMTPRRPGPTRKHYQPYAPPRDFAAYRSRVKFSRSADAPAYQQGQNQLYNELNLGRREEYDVLDKRRGRDPEMGGKPRRKNPQEGLYNELQKDKMAEAYSEIGMKGERRRGKGHDGLYQGLSTATKDTYDALHMQALPPRSSGSGEGRGSLLTCGDVEENPG
GFP induction (%) in CAR-expressing Jurkat-NFAT-EGFP cells, target cell line HEL: 33%
GFP induction (%) in CAR-expressing Jurkat-NFAT-EGFP cells, target cell line RAJI-Mpl: 18%
GFP induction (%) in CAR-expressing Jurkat-NFAT-EGFP cells, target cell line RAJI-vector: 11%

B5: CD8SP-12E10-(vL-vH)-Myc-CD28z-T2A-PAC(031615-S03) (scFv)
chain: DQVQLQQSGPGLVKPSETLSLTCTVSGDSISSYYWSWIRQPPGKGLEWIGYIYYSGSTNYNPSLKSRVTISVDTSKSQFSLKLSSVTAADTAVYYCARGRYFDVWGRGTMVTSSGGGGSGGGGSGGGGSSSYVLTQPPSVSGSPGQSITISCTGTSSDVGGYNYVSWYQQHPGKAPKLMIYEGSKRPSGVSNRFSGSKSGNTASLTISGLQAEDEADYYCSSYTTRSTRVFGGGTKLTVLGAAATREQKLISEEDLKIEVMYPPPYLDNEKSNGTIIHVKGKHLCPSPLFPGPSKPFWVLVVVGGVLACYSLLVTVAFIIFWVRSKRSRLLHSDYMNMTPRRPGPTRKHYQPYAPPRDFAAYRSRVKFSRSADAPAYQQGQNQLYNELNLGRREEYDVLDKRRGRDPEMGGKPRRKNPQEGLYNELQKDKMAEAYSEIGMKGERRRGKGHDGLYQGLSTATKDTYDALHMQALPPRSSGSGEGRGSLLTCGDVEENPG
GFP induction (%) in CAR-expressing Jurkat-NFAT-EGFP cells, target cell line HEL: 5%
GFP induction (%) in CAR-expressing Jurkat-NFAT-EGFP cells, target cell line RAJI-Mpl: 6%
GFP induction (%) in CAR-expressing Jurkat-NFAT-EGFP cells, target cell line RAJI-vector: 4%

The next lines start with the values.

GFP induction (%) in CAR-expressing Jurkat-NFAT-EGFP cells, target cell line HEL: 2%
GFP induction (%) in CAR-expressing Jurkat-NFAT-EGFP cells, target cell line RAJI-Mpl: 3%
GFP induction (%) in CAR-expressing Jurkat-NFAT-EGFP cells, target cell line RAJI-vector: 4%
B1: CD8SP-178-(vL-vH)-Myc-CD28z-T2A-PAC(031615-R04) (scFv)
chain: DIVMTQAAPSIPVTPGESVSISCRSDKSLLHSNGNTYLFWFLQRPGQSPQLLIYRMSNLASGVPDRFSGSGSGTAFTLRISGVEAEDVGVYYCMQHLEYPYTFGGGTKLEIKGGGGSGGGGSGGGGSQVQLQQSGPELVKPGASVKMSCKASGYAFSSSWLNWVRQRPGKGLEWIGRIYPGDGENHYNGKFKGKATLTADKSSSTGYMQLSSLTSEDSAVYFCASYYEGGYWGQGTLITVSATREQKLISEEDLKIEVMYPPPYLDNEKSNGTIIHVKGKHLCPSPLFPGPSKPFWVLVVVGGVLACYSLLVTVAFIIFWVRSKRSRLLHSDYMNMTPRRPGPTRKHYQPYAPPRDFAAYRSRVKFSRSADAPAYQQGQNQLYNELNLGRREEYDVLDKRRGRDPEMGGKPRRKNPQEGLYNELQKDKMAEAYSEIGMKGERRRGKGHDGLYQGLSTATKDTYDALHMQALPPRSSGSGEGRGSLLTCGDVEENPG

GFP induction (%) in CAR-expressing Jurkat-NFAT-EGFP cells, target cell line HEL: 1%
GFP induction (%) in CAR-expressing Jurkat-NFAT-EGFP cells, target cell line RAJI-Mpl: 6%
GFP induction (%) in CAR-expressing Jurkat-NFAT-EGFP cells, target cell line RAJI-vector: 3%
B3: CD8SP-AB317-(vL-vH)-Myc-CD28z-T2A-PAC(031615-T04) (scFv)
chain: DIVLTQSPASLAVSLGQSVTISCRASESVEYYGTSLMQWYQQKPGQPPKLLIYGASNVESGVPARFSGSGSGTDFSLNIHPVEEDDIAMYFCQQSRKVPWTFGGGTKLEIKGGGGSGGGGSGGGGSEVKLVESGGGLVKPGGSRKLSCAASGFTFSSYTMSWVRQTPAKRLEWVATISSGSSTIYYADTVKGRFTISRDNAKNTLFLQMTSLRSEDTAMYYCARRWFLDCWGQGTTLTVSSTREQKLISEEDLKIEVMYPPPYLDNEKSNGTIIHVKGKHLCPSPLFPGPSKPFWVLVVVGGVLACYSLLVTVAFIIFWVRSKRSRLLHSDYMNMTPRRPGPTRKHYQPYAPPRDFAAYRSRVKFSRSADAPAYQQGQNQLYNELNLGRREEYDVLDKRRGRDPEMGGKPRRKNPQEGLYNELQKDKMAEAYSEIGMKGERRRGKGHDGLYQGLSTATKDTYDALHMQALPPRSSGSGEGRGSLLTCGDVEENPG
